The values below come from US20100092409A1 (DANISCO US, published 2010).

In test [1] the target is T1, vascular endothelial growth factor (VEGF) (UniProt P15692-4 27-191, limits assumed, labeled with biotin for the BioVeris assay (sites not given)). As to the kind of experiment: BioVeris ECL competition with a labeled competitor; grade +++ = apparent IC50 about 2-10 µM. The procedure:
(§1) The resulting vectors were used to transform B. subtilis BG6006 host cells. Cultures were grown in 500 ml of MBD medium and the BBI species were purified essentially as described above and by Vogtentanz et al., 2007 (Protein Expr Purif 55:40-52 [2007]). BioVeris binding assays were performed essentially as outlined in Example 5 and by the manufacturer. Binding of the modified variant BBIs to their respective target proteins was measured using a BioVeris® binding assay, which is a competition assay that determines the binding of the modified variant BBIs to its target protein (e.g. VEGF, FGF5, TGFβ and TNFα) in the presence or absence of a labeled competitor. The competitor can be a labeled monoclonal antibody raised against the target protein or a labeled native receptor of the target protein. The electrochemiluminescent binding assays were performed essentially as described in Example 5. The apparent IC50s were determined from binding data by determining the concentration of the BBI species needed to reduce the BioVeris signal by one half. BBI scaffolds without the target binding peptide in the chymotrypsin inhibitory loop were used as negative controls.

The target of test [2] is T1, vascular endothelial growth factor …. As to the kind of experiment: BioVeris ECL competition with a labeled competitor; grade ++ = apparent IC50 about 10-50 µM. The procedure: as §1
Test [3] deals with T2, tumor necrosis factor α (TNFα) (UniProt P01375 77-233). As to the kind of experiment: BioVeris ECL competition with a labeled competitor; grade + = apparent IC50 about 50-250 µM. As for the experimental part:
as §1

For test [4], the target named is T2, tumor necrosis factor α (TNFα). Put plainly: BioVeris ECL competition with a labeled competitor; grade ++ = apparent IC50 about 10-50 µM. As for the experimental part:
as §1

Test [5] has the same target. Put plainly: BioVeris ECL competition with a labeled competitor; negative control for TNFα binding. The procedure: as §1
For test [6], the target named is T3, fibroblast growth factor 5 (FGF-5) (UniProt P12034 21-268, limits assumed).
T3 sequence (looked up): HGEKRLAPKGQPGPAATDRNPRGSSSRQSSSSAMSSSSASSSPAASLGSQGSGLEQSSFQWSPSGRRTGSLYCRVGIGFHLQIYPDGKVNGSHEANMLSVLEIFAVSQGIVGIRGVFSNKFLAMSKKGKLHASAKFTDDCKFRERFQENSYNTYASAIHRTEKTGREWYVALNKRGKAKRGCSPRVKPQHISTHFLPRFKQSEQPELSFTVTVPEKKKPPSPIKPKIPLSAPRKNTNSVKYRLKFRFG
As to the kind of experiment: BioVeris ECL competition with a labeled competitor; grade ++ = apparent IC50 about 10-50 µM. As for the experimental part:
as §1

The target of test [7] is T4, transforming growth factor β1 (TGFβ1) (UniProt P01137 279-390). As to the kind of experiment: BioVeris ECL competition with a labeled competitor; negative control for TGFβ binding. As for the experimental part: as §1
T4 sequence (P01137 279-390 limits assumed): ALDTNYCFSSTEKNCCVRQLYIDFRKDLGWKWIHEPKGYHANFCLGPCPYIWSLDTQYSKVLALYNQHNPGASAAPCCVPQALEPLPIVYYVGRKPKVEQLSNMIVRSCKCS
Test [8] addresses T4, transforming growth factor β1 (TGFβ1). As to the kind of experiment: BioVeris ECL competition with a labeled competitor; grade ++ = apparent IC50 about 10-50 µM. As for the experimental part: as §1
For test [9], the target named is T1, vascular endothelial growth factor …. As to the kind of experiment: BioVeris ECL competition with a labeled competitor; negative control for VEGF binding. The procedure:
as §1

The target of test [10] is T3, fibroblast growth factor 5 (FGF-5). As to the kind of experiment: BioVeris ECL competition with a labeled competitor; negative control for FGF-5 binding. The procedure:
as §1

Bounds are passed on as bounds.

T1 sequence (P15692 other isoform, or with tags, fused parts or gaps limits assumed): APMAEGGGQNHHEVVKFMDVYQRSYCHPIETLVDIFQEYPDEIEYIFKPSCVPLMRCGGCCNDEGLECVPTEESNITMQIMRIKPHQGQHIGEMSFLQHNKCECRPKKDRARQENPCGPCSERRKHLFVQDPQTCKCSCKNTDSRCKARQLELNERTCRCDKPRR
T2 sequence (P01375 77-233 limits assumed): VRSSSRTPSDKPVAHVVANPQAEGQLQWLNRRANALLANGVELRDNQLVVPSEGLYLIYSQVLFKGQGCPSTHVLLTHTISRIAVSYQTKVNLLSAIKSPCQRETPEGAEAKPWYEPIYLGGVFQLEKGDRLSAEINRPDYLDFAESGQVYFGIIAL

B1: BBIt-AV (truncated BBI-AV, unmodified variant) (designed binder)
chain: DDESSKPCCDQCACTKSNPPQCRCSDMRLNSCHSACKSCACYNLYGWTCFCVDITDFCYEPCKPSE
notes: also called CT
On to B1, for which, in test [1], the IC50 (as a rule, the point on the concentration scale where inhibition reaches its midpoint) was in the range of 2 to 10 µM.

B2: BBIt-VEGF-V5-A13I-S25R-M27A-L29P-S31A-F50K-V52T (designed binder)
chain: DPDDESSKPCCDQCICTKSNPPQCRCRDARPNACHSACKSCACKPSSASSCKCTDITDFCYEPCKPSE
notes: also called BBIt-AV-V5
For the molecule B2, in [2], the IC50 lay within 10 to 50 µM.

B3: BBIt-TNFα-T3-A13I-S25R-M27A-L29P-S31A-F50K-V52T (designed binder)
chain: DPDDESSKPCCDQCICTKSNPPQCRCRDARPNACHSACKSCACDMIMVSICKCTDITDFCYEPCKPSE
notes: also called BBIt-TNF-T3
For B3, the IC50 in [3] was 50 to 250 µM.

B4: BBIt-TNFα-T1-A13I-S25R-M27A-L29P-S31A-F50K-V52T (designed binder)
chain: DPDDESSKPCCDQCICTKSNPPQCRCRDARPNACHSACKSCACRYWQDIPCKCTDITDFCYEPCKPSE
notes: also called BBIt-TNF-T1
On to B4, for which the IC50 in test [4] was in the range of 10 to 50 µM.

B5: BBIt-TNFα-T2-A13I-S25R-M27A-L29P-S31A-F50K-V52T (designed binder)
chain: DPDDESSKPCCDQCICTKSNPPQCRCRDARPNACHSACKSCACAPEPILACKCTDITDFCYEPCKPSE
notes: also called BBIt-TNF-T2
For B5, the IC50 in [3] fell in the range of 50 to 250 µM.

B6: BBIt-VEGF-V6-A13I-S25R-M27A-L29P-S31A-F50K-V52T (designed binder)
chain: DPDDESSKPCCDQCICTKSNPPQCRCRDARPNACHSACKSCACPVTKRVHCKCTDITDFCYEPCKPSE
notes: also called BBIt-AV-V6
For B6, in test [2], the IC50 lay within 10 to 50 µM.

B7: BBIt-VEGF-V4-A13I-S25R-M27A-L29P-S31A-F50K-V52T (designed binder)
chain: DPDDESSKPCCDQCICTKSNPPQCRCRDARPNACHSACKSCACKHSAKAECKCTDITDFCYEPCKPSE
notes: also called BBIt-AV-V4
B7: the IC50 in test [1] fell in the range of 2 to 10 µM.

B8: BBIt-VEGF-V3-A13I-S25R-M27A-L29P-S31A-F50K-V52T (designed binder)
chain: DPDDESSKPCCDQCICTKSNPPQCRCRDARPNACHSACKSCACRPTGHSLCKCTDITDFCYEPCKPSE
notes: also called BBIt-AV-V3
Consider B8, for which the IC50 in test [2] was in the range of 10 to 50 µM.

B9: BBIt-VEGF-V2-A13I-S25R-M27A-L29P-S31A-F50K-V52T (designed binder)
chain: DPDDESSKPCCDQCICTKSNPPQCRCRDARPNACHSACKSCACKTNPSGSCKCTDITDFCYEPCKPSE
notes: also called BBIt-AV-V2
On to B9, for which the IC50 in test [1] lay in the range of 2 to 10 µM.

B10: BBIt-VEGF-V1-A13I-S25R-M27A-L29P-S31A-F50K-V52T (designed binder)
chain: DPDDESSKPCCDQCICTKSNPPQCRCRDARPNACHSACKSCACSKHSQITCKCTDITDFCYEPCKPSE
notes: also called BBIt-AV-V1
As for B10, the IC50 in [5] is more than 250 µM; in test [2], 10 to 50 µM.

B11: BBIt-AV-A13I-L29P-A40K-F50T-V52A (designed binder)
chain: DPDDESSKPCCDQCICTKSNPPQCRCSDMRPNSCHSACKSCKCYNLYGWTCTCADITDFCYEPCKPSE
notes: also called TA5; quintuple variant
On to B11, for which the 50% inhibitory concentration (IC50) in test [1] was in the range of 2 to 10 µM.

B12: MM007-Q-BBIt-FGF-5 (designed binder)
chain: DPDDESSKPCCDQCICTKSNPPQCRCSDMRPNSCHSACKSCACRTQPYPLCTCADITDFCYEPCKPSE
notes: also called BBIt-MM007-Q-A13I-L29P-F50T-V52A
For B12, the IC50 in test [6] lay within 10 to 50 µM.

B13: FGFps2-Q-BBIt-FGF-5 (designed binder)
chain: DPDDESSKPCCDQCICTKSNPPQCRCSDMRPNSCHSACKSCACTWIDSTPCTCADITDFCYEPCKPSE
notes: also called BBIt-FGFps2-Q-A13I-L29P-F50T-V52A
B13: the figures for the IC50 in test [7] and in test [6] were more than 250 µM and 10 to 50 µM, respectively.

B14: WTQ-Q-BBIt-TGFβ1 (designed binder)
chain: DPDDESSKPCCDQCICTKSNPPQCRCSDMRPNSCHSACKSCACWTQHIHNCTCADITDFCYEPCKPSE
notes: also called WTQ-BBIt-Q-TGF; BBIt-WTQ-Q-A13I-L29P-F50T-V52A
With B14, in [8], the IC50 fell in the range of 10 to 50 µM.

B15: MM021W-Q-BBIt-TGFβ1 (designed binder)
chain: DPDDESSKPCCDQCICTKSNPPQCRCSDMRPNSCHSACKSCACKHNVDWLCTCADITDFCYEPCKPSE
notes: also called BBIt-MM021W-Q-A13I-L29P-F50T-V52A
On to B15, for which the IC50 in test [8] was in the range of 10 to 50 µM.

B16: BBIt-AV-A13I-S25K-M27A-L29R-S31E-A40K-F50Q-V52Q (designed binder)
chain: DPDDESSKPCCDQCICTKSNPPQCRCKDARRNECHSACKSCKCYNLYGWTCQCQDITDFCYEPCKPSE
notes: also called QQ8
Take B16: the IC50 in test [1] fell in the range of 2 to 10 µM.

B17: BBIt-AV-A13I-S25K-M27A-L29R-S31A-A40H-F50R-V52L (designed binder)
chain: DPDDESSKPCCDQCICTKSNPPQCRCKDARRNACHSACKSCHCYNLYGWTCRCLDITDFCYEPCKPSE
notes: also called RL8
Consider B17, for which, in test [1], the IC50 fell in the range of 2 to 10 µM.

B18: BBIt-AV-A13I-S25R-M27A-L29P-S31A-A40H-F50K-V52T (designed binder)
chain: DPDDESSKPCCDQCICTKSNPPQCRCRDARPNACHSACKSCHCYNLYGWTCKCTDITDFCYEPCKPSE
notes: also called KT8
Turning to B18, the IC50 in test [1] lay in the range of 2 to 10 µM.

B19: BBIt-AV-A13I-A40K-F50T-V52A (designed binder)
chain: DPDDESSKPCCDQCICTKSNPPQCRCSDMRLNSCHSACKSCKCYNLYGWTCTCADITDFCYEPCKPSE
B19: the IC50 in [1] fell in the range of 2 to 10 µM.

B20: BBIt-VEGKD-A13I-S25K-L29P-V52K (designed binder)
chain: DPDDESSKPCCDQCICTKSNPPQCRCKDMRPNSCHSACKSCICKYDLYWWCFCKDITDFCYEPCKPSE
notes: also called VegKD-Q
On to B20, for which the IC50 in test [1] is 2 to 10 µM.

B21: BBdb-AV (Dolichos biflorus Bowman Birk Inhibitor with CK37281 in the second protease inhibitory loop) (designed binder)
chain: DPSESSKPCCDQCACTKSIPPQCRCTDVRLNSCHSACSSCACYNLYGWTCVCVDMKDFCYEPCK
notes: also called BBIdb-AV
B21: the IC50 in test [1] lay in the range of 2 to 10 µM.

B22: soybean Bowman-Birk Inhibitor (BBI), wild type (other)
chain: DDESSKPCCDQCACTKSNPPQCRCSDMRLNSCHSACKSCICALSYPAQCFCVDITDFCYEPCKPSEDDKEN
notes: Used as the negative control; also called sBBI; BBI-WT
B22: the IC50 in [9] and in test [10] was more than 250 µM throughout.

B23: BBtc-AV (Torresea cearensis Bowman Birk Inhibitor with CK37281 in the second protease inhibitory loop) (designed binder)
chain: DPSSKWEACCDRCACTKSIPPQCHCADIRLNSCHSACESCACYNLYGWTCRCFDITDFCYKPCSG
notes: also called BBItc-AV
As to B23, the IC50 in test [1] is 2 to 10 µM.

B24: PEN3-Q-BBIt-TGFβ1 (designed binder)
chain: DPDDESSKPCCDQCICTKSNPPQCRCSDMRPNSCHSACKSCACPENINVLPCTCADITDFCYEPCKPSE
notes: also called BBIt-PEN3-Q-A13I-L29P-F50T-V52A
For B24, the IC50 in test [8] fell in the range of 10 to 50 µM.
